The target in series [1] is human interleukin-6 (Homo sapiens) (UniProt P05231). The series is described as follows: solution affinity (radiolabel, ZORBAX resin capture). The conditions noted are these: SB17T: 40 mM HEPES pH 7.5, 102 mM NaCl, 5 mM KCl, 5 mM MgCl2, 1 mM EDTA, 0.05% Tween 20, 37 C.
Series [2] has the same target. The experiment in a line: SPR. The settings on record: 2'-OMe at C3,G6,A16,A19,C20,C28; Bn-dU9 to Pe-dU; Bn-dU12 to Nap-dU; other dT Bn-dU; SB17T: 40 mM HEPES pH 7.5, 102 mM NaCl, 5 mM KCl, 5 mM MgCl2, 1 mM EDTA, 0.05% Tween 20, 37 C.

3 sequences from PMC3961692 can be followed below.

human interleukin-6 (Homo sapiens), sequence (P05231 30-212): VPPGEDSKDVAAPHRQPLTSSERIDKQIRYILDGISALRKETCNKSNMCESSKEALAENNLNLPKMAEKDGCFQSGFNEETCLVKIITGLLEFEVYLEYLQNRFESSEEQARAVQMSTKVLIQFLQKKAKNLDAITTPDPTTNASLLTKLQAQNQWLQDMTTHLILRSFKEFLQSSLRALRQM

The term Kd denotes the equilibrium constant for the complex coming apart. A higher Kd goes with a looser complex. As to “GGCAGGUUUGGUAUUAACACGUUAAGUCGUGG [SL1023]”, the Kd in series [1] (Bn-dU replaces dT) turned out to be 1000 pM.
With “GGCAGGUUUGGUAUUAACACGUUAAGUCGUGG [SL1025]”, the Kd in series [1] (2'-OMe at C3,G6,A16,A19,C20,C28, Bn-dU9 to Pe-dU, Bn-dU12 to Nap-dU, other dT Bn-dU) was 160 pM; in series [2] it was 230 pM.
In series [1] (Nap-dU replaces dT), “GGGGUUAUGUAGCGAGUGCGUAAGGCGGUGGGCGAGGGA [SL1030]” showed a binding signal (fold weaker than SL1032) of 10.
